Experimental data as given in paper PMC2839085.

Molecular target: TmMre11 (TM1635) truncated construct, residues 1-324 (Thermotoga maritima) (UniProt Q9X1X0)
Assay: crystal structure

TmMre11 (TM1635) truncated construct, residues 1-324 (from UniProt Q9X1X0 1-324) (domain or fragment)
stoichiometry N: 2
